According to US8357523B2, “Beta-glucosidase variant enzymes and related polynucleotides” (Codexis, Inc., priority 2009, dated 2013):
Changes are numbered by the printed parent chain.

B1: 282 (protein)
chain: STAIAQEGAAPAAILHPEKWPRPATQRLIDPAVEKRVDALLKQLSVEEKVGQVIQGDIGTITPEDLRKYPLGSILAGGDSGPNGDDRAPPKEWLDLADAFYRVSLEKRPGHTPIPVLFGIDAVHGHGNIGSATIFPHNIALGMTRDPELLRRIGEVTAEEMAATGIDWTFAPALSVVRDDRWGRTYEGFSEDPEIVASYSAAIVEGVQGKYGSKDFMAPGRIVASAKHFLADGGTDQGRDQGDARCSEDELIRIHNAGYPPAIDAGVLTVMASFSSWQGIKHHGHKQLLTDVLKGQMGFNGFIVGDWNAHDQVPGCTKFNCPTSLIAGLDMYMAADSWKQLYENTLAQVKDGTIPMARLDDAVRRILRVKVLAGLFEKPAPKDRPGLPGLETLGSPEHRAVGREAVRKSLVLLKNDKGTLPLSPKARVLVAGDGADNIGKQSGGWTISWQGTGNRNDEFPGATSILGGIRDAVADAGGSVEFDVAGQYKTKPDVAIVVFGEEPYAEFQGDVETLEYQPDQKQDLALLKKLKDQGIPVVAVFLSGRPMWVNPELNASDAFVAAWLPGTEGGGVADVLFTDKAGKVQHDFAGKLSYSWPRTAAQTTVNRGDADYNPLFAYGYGLTYKDKSKVGTLPEESGVPAEARQNAGIYFRAGALRLPGRFL
B2: 283 (protein)
chain: STAIAQEGAAPAAILHPEKWPRPATQRLIDPAVEKRVDALLKQLSVEEKVGQVIQGDIGTITPEDLRKYPLGSILAGGDSGPNGDDRAPPKEWLDLADAFYRVSLEKRPGHTPIPVLFGIDAVHGHGNIGSATIFPHNIALGMTRDPELLRRIGEVTAEEMAATGIDWTFAPALSVVRDDRWGRTYEGFSEDPEIVASYSAAIVEGVQGKYGSKDFMAPGRIVASAKHFLADGGTDQGRDQGDARISEDELIRIHNAGYPPAIDAGVLTVMASFSSWQGIKHHGHKQLLTDVLKGQMGFNGFIVGDWNAHDQVPGCTKFNCPTSLIAGLDMYMAADSWKQLYENTLAQVKDGTIPMARLDDAVRRILRVKMLAGLFEKPAPKDRPGLPGLETLGSPEHRAVGREAVRKSLVLLKNDKGTLPLSPKARVLVAGDGADNIGKQSGGWTISWQGTGNRNDEFPGATSILGGIRDAVADAGGSVEFDVAGQYKTKPDVAIVVFGEEPYAEFQGDVETLEYQPDQKQDLALLKKLKDQGIPVVAVFLSGRPMWVNPELNASDAFVAAWLPGTEGGGVADVLFTDKAGKVQHDFAGKLSYSWPRTAAQTTVNRGDADYNPLFAYGYGLTYKDKSKVGTLPEESGVP
B3: 284 (protein)
chain: B1 chain with C246I, G298R, D311E
B4: 285 (protein)
chain: B2 chain with M371V, G386E
B5: 214 (protein)
chain: B2 chain with A3L, M371V
B6: 287 (protein)
chain: B1 chain with C246I, D311G
B7: 215 (protein)
chain: B2 chain with A10P, M371V
B8: 216 (protein)
chain: B2 chain with I14T, M371V
B9: 217 (protein)
chain: B2 chain with A10S, M371V
B10: 222 (protein)
chain: B2 chain with A5T, M371V
B11: 428 (protein)
chain: SAAITQEGAAPAAMLHPEKWPRPATQRLIDPAVEKRVDALLKQLSVEEKVGQVIQGDIGTITPEDLRKYPLGSILAGGDSGPNGDDRAPPKEWLDLADAFYRVSLEKRPGHTPIPVLFGIDAVHGHNNIGSATIFPHNIALGMTRDPELLRRIGEVTAEEMAATGIDWTFAPALSVPRDDRWGRTYEGFSEDPEIVASYSAAIVEGFQGKYGSKDFMAPGRAVACAKHFLADGGTDQGRDQGDARISEDELIRIHNAGYPPAIDAGVLTVMASFSSWQGIKHHGHKQLLTDVLKGQMGFNGFIVGDWNAHDQVPGCTKFNCPTSLIAGLDMYMAADSWKQLYENTLAQVKDGTIPMARLDDAVRRILRVKVLAGLFEKPAPKDRPGLPGLETLGSPEHRTVGREAVRKSLVLLKNDKGTLPLSPKARVLVAGDGADNIGKQSGGWTISWQGTGNRNDEFPGATSILGGIRDAVADAGGSVEFDVAGQYKTKPDVAIVVFGEEPYAEFQGDVETLEYQPDQKQDLTLLKKLKDQGIPVVAVFLSGRPMWVNPELNASDAFVAAWLPGTEGGGVADVLFTDKAGKVQHDFAGKLSYSWPRTAAQTTVNRGDADYNPLFAYGYGLTYKDKSKVGTLPEESGVPAEARQNAGIYFRAGALRLPGRFL
modifications: truncated; signal peptide F-10T
B12: 429 (protein)
chain: B11 chain with A13P, P147T, P177V, I203Y, T400A, Q508R, H586Y
modifications: truncated; signal peptide F-10T
B13: 430 (protein)
chain: B11 chain with P109D, T400A, Q508R
modifications: truncated; signal peptide F-10T
B14: 431 (protein)
chain: B11 chain with A13P, P109D, T400A, Q508R, T525S
modifications: truncated; signal peptide F-10T

Assay: High throughput cellobiose assay: fold improvement in cellobiase activity of CelA variants over a control enzyme (Tables 2A-2D, 3, 5, 6, 7)
Type: biochemical
Details: 3.3 g/l cellobiose; for Fold improvement over Control Variant No. 94 from Table 2B: 55° C. and pH 5.3 (incubation overnight); for Fold Improvement over Control Variant: 65° C. and pH 5 (incubation overnight), relative to Control #5, Variant No. 366 (SEQ ID NO: 9)

| Molecule | Fold improvement over Control Variant No. 94 from Table 2B | Fold Improvement over Control Variant |
| --- | --- | --- |
| B1 | ++++ (++++ = 1.1 to 1.5 fold improvement over Control No. 3, Variant No. 94) | – |
| B2 | ++++ (++++ = 1.1 to 1.5 fold improvement over Control No. 3, Variant No. 94) | – |
| B3 | ++++ (++++ = 1.1 to 1.5 fold improvement over Control No. 3, Variant No. 94) | – |
| B4 | ++++ (++++ = 1.1 to 1.5 fold improvement over Control No. 3, Variant No. 94) | – |
| B5 | ++++ (++++ = 1.1 to 1.5 fold improvement over Control No. 3, Variant No. 94) | – |
| B6 | ++++ (++++ = 1.1 to 1.5 fold improvement over Control No. 3, Variant No. 94) | – |
| B7 | ++++ (++++ = 1.1 to 1.5 fold improvement over Control No. 3, Variant No. 94) | – |
| B8 | ++++ (++++ = 1.1 to 1.5 fold improvement over Control No. 3, Variant No. 94) | – |
| B9 | ++++ (++++ = 1.1 to 1.5 fold improvement over Control No. 3, Variant No. 94) | – |
| B10 | ++++ (++++ = 1.1 to 1.5 fold improvement over Control No. 3, Variant No. 94) | – |
| B11 | – | ++ (++ = 1.1 to 2.0 fold improvement over control Variant No. 366) |
| B12 | – | ++ (++ = 1.1 to 2.0 fold improvement over control Variant No. 366) |
| B13 | – | ++ (++ = 1.1 to 2.0 fold improvement over control Variant No. 366) |
| B14 | – | ++ (++ = 1.1 to 2.0 fold improvement over control Variant No. 366) |
